Experimental data taken from patent publication US20250206841A1 (ADEPT THERAPEUTICS, published 2025).

Key:
[1] = biological target: T1, human Trop-2 expressed on cell surface (human, UniProt P09758 27-323); test: cell-based or functional assay
T1 sequence (looked up): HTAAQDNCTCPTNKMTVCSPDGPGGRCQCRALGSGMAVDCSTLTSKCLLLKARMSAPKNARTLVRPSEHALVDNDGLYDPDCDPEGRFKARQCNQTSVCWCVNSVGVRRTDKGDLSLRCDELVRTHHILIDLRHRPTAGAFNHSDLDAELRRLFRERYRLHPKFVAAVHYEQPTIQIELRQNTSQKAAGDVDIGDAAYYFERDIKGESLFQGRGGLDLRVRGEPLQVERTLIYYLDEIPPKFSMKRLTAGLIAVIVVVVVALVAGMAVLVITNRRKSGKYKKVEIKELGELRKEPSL

[2] = biological target: cynomolgus Trop-2-His protein (cynomolgus); test: ELISA, coated Trop-2 protein
human Trop-2-His protein [3] = biological target: T2, human Trop-2-His protein (human, UniProt P09758 27-274); test: BLI (Gator Plus), Ab on HFC probe
T2 construct: extracellular domain; Assay paragraphs say only 'Trop-2-His'; also called hTrop-2; Kactus Cat #TRP-HM121; not shown: His tag
T2 sequence (looked up): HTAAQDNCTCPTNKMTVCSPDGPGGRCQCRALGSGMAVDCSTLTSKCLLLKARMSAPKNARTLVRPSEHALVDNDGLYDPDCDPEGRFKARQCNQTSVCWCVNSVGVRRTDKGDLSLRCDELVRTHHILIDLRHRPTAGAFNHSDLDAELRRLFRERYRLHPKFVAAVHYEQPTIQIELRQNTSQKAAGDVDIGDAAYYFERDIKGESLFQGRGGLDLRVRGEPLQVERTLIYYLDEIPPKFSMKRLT

[4] = biological target: T1, human Trop-2 expressed on cell surface; test: flow cytometry, MCF-7 cells
Method: (§1) Cells were then resuspended in FACS buffer (1×DPBS/1% FBS) at 10⁶/ml concentration. One hundred microliter (100 μl) of cells were aliquoted into a single well in 96 well plates. The antibodies to be tested were serially diluted at 1:3 fold starting at 15 μg/mL and were then added into each well. The antibodies were mixed with cells and the mixtures were incubated on ice for 1 hour. After washing with FACS buffer, one hundred microliter (100 μl) of 1:400 diluted PE-conjugated anti-human Fc secondary antibody (Jackson Immuno Research) was added into each well and incubated for 30 minutes on ice. After washing with FACS buffer, stained cells were resuspended at diluted 7-ADD (Biolegend, used at 1:100 dilution) and analyzed on Guava 11HT or 5HT (Luminex). Data was analyzed using Flowjo software. EC₅₀ values were calculated using GraphPad Prism. Sacitnzurnab govitecan was used as positive control. Anti-HEL.hIgG1 was used as isotype negative control. Similar assay was performed using MCF-7 cells (known to express human Trop-2).

human Trop-2-His protein [5] = biological target: T2, human Trop-2-His protein; test: ELISA, coated Trop-2 protein
Method: Purified antibodies were tested by ELISA to confirm their binding and affinity against human and cynomolgus Trop-2-His protein. Briefly, 96-well Maxisorp plates (Nunc) were coated with 100 μl/well of 0.5 μg/ml human (Kactus Cat #TRP-HM121, or Sino Biological, Cat #10428-HO8H) or cynomolgus Trop-2 protein (Kactus Cat #TRP-CM121, or Sino Biological, Cat #90893-CO8H) diluted in 1×PBS (GIBCO) overnight at 4° C. Plates were washed four times with 300 μl/well washing buffer (1×PBST, diluted from 20×PBST (Thermo Scientific) with distilled water)) and then blocked with 300 μl/well of blocking buffer (1×PBST/3% BSA (BSA, Sigma)) for 2 hours at RT on plate shaker at 100 rpm. Plates were washed and added with 100 μl/well of testing antibodies, which were serial diluted with assay buffer (PBST/1% BSA). The antibodies were incubated at room temperature for 2 hours on plate shaker at 100 rpm. Plates were washed. One hundred microliters (100 μl) of 1:10,000 diluted horseradish peroxidase (HRP) conjugated anti-hIgG antibody (Jackson Immuno Research) was added into each well and incubated at room temperature for 1 hour on plate shaker at 100 rpm. Plates were washed and added with 100 μl/well TMB substrate for color development in dark at room temperature for up to 10 minutes. After addition of 50 μl/well of stop solution (1N H₂SO₄), plates were read at 450 nm on a plate reader (SpectraMax M5). EC₅₀ values were calculated using Graphpad Prism. Sacituzumab govitecan, was used as positive control. Anti-HEL.hIgG1 was used as isotype control.

[6] = biological target: T1, human Trop-2 expressed on cell surface; test: flow cytometry, MDA-MB-231-GFP cells
Method: as §1

human Trop-2-His protein [7] = biological target: T2, human Trop-2-His protein; test: BLI (Gator Prime), positive control at 1 µg/ml on HFC probe
[8] = biological target: cynomolgus Trop-2-His protein (cynomolgus); test: as above
human Trop-2-His protein [9] = biological target: T2, human Trop-2-His protein; test: BLI (Gator Prime), positive control at 1 µg/ml on HFC probe; second line of values
[10] = biological target: cynomolgus Trop-2-His protein (cynomolgus); test: as above

B1: Sacituzumab govitecan (antibody, INN chains, looked up, V domains shown)
VH: QVQLQQSGSELKKPGASVKVSCKASGYTFTNYGMNWVKQAPGQGLKWMGWINTYTGEPTYTDDFKGRFAFSLDTSVSTAYLQISSLKADDTAVYFCARGGFGSSYWYFDVWGQGSLVTVSS
VL: DIQLTQSPSSLSASVGDRVSITCKASQDVSIAVAWYQQKPGKAPKLLIYSASYRYTGVPDRFSGSGSGTDFTLTISSLQPEDFAVYYCQQHYITPLTFGAGTKVEIKR
modifications: SN-38 payload (govitecan)
EC50 of ADCC (NFAT-CD16 reporter), MCF-7; average from 3 plates [1]: 2.72 nM | EC50 of ADCC (NFAT-CD16 reporter), MDA-MB-231; average from 3 plates [1]: 0.55 nM | Internalization %, MCF-7, 0.25 µg/ml, 1 h [1]: 30% | Internalization %, MCF-7, 0.25 µg/ml, 2 h [1]: 43% | Internalization %, MCF-7, 0.25 µg/ml, 4 h [1]: 44% | Internalization %, MCF-7, 0.5 µg/ml, 1 h [1]: -4% | Internalization %, MCF-7, 0.5 µg/ml, 2 h [1]: 41% | Internalization %, MCF-7, 0.5 µg/ml, 4 h [1]: 55% | Internalization %, MDA-MB-231, 0.25 µg/ml, 2 h [1]: 41% | Internalization %, MDA-MB-231, 0.25 µg/ml, 4 h [1]: 46% | Internalization %, MDA-MB-231, 0.5 µg/ml, 2 h [1]: 42% | Internalization %, MDA-MB-231, 0.5 µg/ml, 4 h [1]: 45% | Internalization %, MDA-MB-231, 1 µg/ml, 2 h [1]: 43% | Internalization %, MDA-MB-231, 1 µg/ml, 4 h [1]: 49% | Internalization %, MDA-MB-231, 2 µg/ml, 2 h [1]: 43% | Internalization %, MDA-MB-231, 2 µg/ml, 4 h [1]: 48% | EC50 [2]: 0.017 nM | kon (human Trop-2-His protein [3]): 239000 M⁻¹ s⁻¹ | EC50 [4]: 2.2 nM | EC50 (human Trop-2-His protein [5]): 0.014 nM | EC50 [6]: 0.09 nM | Kd (human Trop-2-His protein [7]): 0.755 nM | koff (human Trop-2-His protein [7]): 0.00022 s⁻¹ | kon (human Trop-2-His protein [7]): 285000 M⁻¹ s⁻¹ | Kd [8]: 0.614 nM | koff [8]: 0.00022 s⁻¹ | kon [8]: 405000 M⁻¹ s⁻¹ | Kd (human Trop-2-His protein [9]): 0.497 nM | koff (human Trop-2-His protein [9]): 0.00014 s⁻¹ | kon (human Trop-2-His protein [9]): 281000 M⁻¹ s⁻¹ | Kd [10]: 0.772 nM | koff [10]: 0.00025 s⁻¹ | kon [10]: 326000 M⁻¹ s⁻¹
